One series addresses APOBEC3G (A3G-Myc-His) (human, UniProt Q9HC16 1-384). Briefly: EMSA.
The target of the next series is A3G-H248A/H250A-Myc-His (human, UniProt Q9HC16 1-384, H248A;H250A). Briefly: EMSA. In general terms: A gel shift assay detects complexes by their altered migration in electrophoresis.
A3G-H248A/H250A-Myc-His, sequence (Q9HC16 whole entry H248A/H250A): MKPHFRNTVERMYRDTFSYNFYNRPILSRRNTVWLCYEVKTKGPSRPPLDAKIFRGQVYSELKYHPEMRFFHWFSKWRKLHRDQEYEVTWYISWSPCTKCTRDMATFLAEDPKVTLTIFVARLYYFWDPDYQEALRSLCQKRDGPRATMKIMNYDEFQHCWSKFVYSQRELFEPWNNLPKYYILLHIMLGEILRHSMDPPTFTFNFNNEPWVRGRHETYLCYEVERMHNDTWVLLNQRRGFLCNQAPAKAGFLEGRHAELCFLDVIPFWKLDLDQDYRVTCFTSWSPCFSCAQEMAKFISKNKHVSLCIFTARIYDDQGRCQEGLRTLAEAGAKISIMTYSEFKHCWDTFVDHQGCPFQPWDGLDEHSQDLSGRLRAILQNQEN

APOBEC3G (A3G-Myc-His), sequence (Q9HC16 whole entry): as the sequence (Q9HC16 whole entry H248A/H250A) above, with A248H, A250H counted along it

B1: 43-nt ssDNA (ssDNA)
DNA: ATTATTATTATTCCAATGGATTTATTTATTTATTTATTTATTT
In the case of B1, the binding result in the series with APOBEC3G (A3G-Myc-His) and with A3G-H248A/H250A-Myc-His was “binds” in each case.

For the origin of these results see paper PMC3030345.
